Measurements taken from patent publication US20090099080A1 (UNIVERSITY OF MASSACHUSETTS, published 2009).

Target: T1, GST (UniProt P08515 1-218 = GST)
T1 construct: Control for the GST fusion baits; also called glutathione S-transferase (control)
Assay: GST pull down of recombinant CypD, CypD immunoblot

T1 sequence (P08515 whole entry, the tested form may be a part): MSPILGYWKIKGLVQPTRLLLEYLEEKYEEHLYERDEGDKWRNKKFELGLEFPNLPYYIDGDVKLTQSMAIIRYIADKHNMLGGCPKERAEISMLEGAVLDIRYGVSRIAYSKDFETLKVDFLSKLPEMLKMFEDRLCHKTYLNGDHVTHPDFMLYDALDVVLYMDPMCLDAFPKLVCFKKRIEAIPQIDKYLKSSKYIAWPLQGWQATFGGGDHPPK

binding result: no binding
B1: recombinant CypD (purified, in solution) (enzyme)
chain: not shown
